Reference: patent US20110189093A1, “PROSTATE SPECIFIC MEMBRANE ANTIGEN ANTIBODIES AND ANTIGEN BINDING FRAGMENTS” (PROSCAN RX PHARMA, priority 2008, published 2011)

Key:
22 different tumor types = test: Immunohistochemistry on tissue microarrays of tumor types
Procedure: (§1) Tissue and tumor specificity of mAbs: to compare the tissue and tumor specificity of monoclonal antibodies of the present invention, tissue microarrays of 30 different normal tissues (Biochain) and 22 different tumor types (Dako) including prostate cancer was used in order to characterize their recognition specificity. The immunohistochemistry was performed on antigen retrieved, formalin fixed, paraffin embedded material. Anti-PSMA mAbs J591 (ATCC HB-12126) and 7E11 (ATCC HB-10494) were used as references. Formalin fixed paraffin embedded […] sections were subjected to antigen retrieval in basic antigen retrieval solution (BD Pharmingen pH 9.5) in a microwavable pressure cooker for 10 min, cooled and equilibrated to 0.01M phosphate buffered saline (PBS) pH 7.4. Staining was carried out at room temperature in a humidified chamber. Endogenous peroxidases were inactivated with a 1% solution of H2O2 for 20 min, blocked with 5% normal goat serum (NGS) for 30 min and incubated with primary monoclonal antibodies (mAbs) diluted in PBS; 2% NGS overnight. Antibody binding to tissue sections was detected by the sequential addition of the following reagents followed by washing in PBS: goat anti-mouse IgG (H+L) (ICN) secondary antibody diluted 1:100 in PBS; 2% NGS for 1 hr, a complex of a bi-specific mAb mouse anti-peroxidase and horse radish peroxidase for 1 hr, and 3,3-diaminobenzidene tetrahydrochloride (DAB) at 0.6 mg/ml in PBS; 2% NGS; 0.01% H2O2 as chromogen. The primary antibodies were purified mAbs used at concentrations optimized in dilution experiments. […] Mouse IgG mAb was used at a concentration of 0.2 μg/ml and served as a negative control for the primary antibodies. Tissue samples included organ confined and metastatic prostate cancer, HGPIN and normal prostate tissues drawn from radical prostatectomies, transurethral resections and autopsy material.

[1] = tested on: 30 different normal tissues; test: Immunohistochemistry on tissue microarrays of normal tissues
Procedure: as §1

B1: PSf42.1: anti-PSMA monoclonal antibody; light chain variable SEQ ID NO:45, heavy chain variable SEQ ID NO:46 (antibody, V domains shown)
VH: EVQLEESGAEFVRPGAAVKLSCTVSGLNIKDSYLHWVKQRPEQGLEWIGGIDPANGDVEYDPKFQGKAAITADTSSNTAYLRLSSLTSEDTAVYYCAPFPYWGAGTTVTVS
VL: DILMTQSPLTLSVIIGQPASFSCKSSHSLLHRDGRTYLNWLLQRPGQSPQRLIYLVSKLDSGVPDRFTGSGSGTDFTLKISRVEAEDLGVYYCWQGTHFPRTFGGGTKLEIKRA
No. of positive cases/total no. of cases studied (22 different tumor types; Astrocytoma): 0/2
No. of positive cases/total no. of cases studied (22 different tumor types; Breast carcinoma): 0/2
No. of positive cases/total no. of cases studied (22 different tumor types; Carcinoid): 0/3
No. of positive cases/total no. of cases studied (22 different tumor types; Colonic adenocarcinoma): 0/2
No. of positive cases/total no. of cases studied (22 different tumor types; Epithelioid sarcoma): 0/1
No. of positive cases/total no. of cases studied (22 different tumor types; Ewing's sarcoma): 0/1
No. of positive cases/total no. of cases studied (22 different tumor types; Gastric carcinoma): 0/2
No. of positive cases/total no. of cases studied (22 different tumor types; Hepatocellular carcinoma): 0/2
No. of positive cases/total no. of cases studied (22 different tumor types; Hodgkin's lymphoma): 1/13
No. of positive cases/total no. of cases studied (22 different tumor types; Leiomyoma): 0/2
No. of positive cases/total no. of cases studied (22 different tumor types; Lung adeno carcinoma): 0/2
No. of positive cases/total no. of cases studied (22 different tumor types; Lymphoma): 0/3
No. of positive cases/total no. of cases studied (22 different tumor types; Malignant fibrous histiocytoma): 0/1
No. of positive cases/total no. of cases studied (22 different tumor types; Melanoma): 0/3
No. of positive cases/total no. of cases studied (22 different tumor types; Mesothelioma): 0/2
No. of positive cases/total no. of cases studied (22 different tumor types; Ovarian carcinoma): 0/2
No. of positive cases/total no. of cases studied (22 different tumor types; Pancreatic carcinoma): 0/2
No. of positive cases/total no. of cases studied (22 different tumor types; Prostatic carcinoma): 1/1
No. of positive cases/total no. of cases studied (22 different tumor types; Renal cell carcinoma): 0/2
No. of positive cases/total no. of cases studied (22 different tumor types; Rhabdosarcoma): 0/2
No. of positive cases/total no. of cases studied (22 different tumor types; Thyroid carcinoma): 0/2
No. of positive cases/total no. of cases studied (22 different tumor types; Undifferentiated carcinoma): 0/4
No. of positive cases/total no. of cases studied ([1]; Adipose): 0/2
No. of positive cases/total no. of cases studied ([1]; Bladder): 0/2
No. of positive cases/total no. of cases studied ([1]; Brain): 0/2
No. of positive cases/total no. of cases studied ([1]; Breast): 0/2
No. of positive cases/total no. of cases studied ([1]; Cerebullum): 0/2
No. of positive cases/total no. of cases studied ([1]; Cervix): 0/2
No. of positive cases/total no. of cases studied ([1]; Colon): 0/2
No. of positive cases/total no. of cases studied ([1]; Diaphragm): 2/2
No. of positive cases/total no. of cases studied ([1]; Duodenum): 0/2
No. of positive cases/total no. of cases studied ([1]; Esophagus): 0/2
No. of positive cases/total no. of cases studied ([1]; Gallbladder): 0/2
No. of positive cases/total no. of cases studied ([1]; Heart): 0/2
No. of positive cases/total no. of cases studied ([1]; Ileum): 0/2
No. of positive cases/total no. of cases studied ([1]; Jejenum): 0/2
No. of positive cases/total no. of cases studied ([1]; Kidney): 0/2
No. of positive cases/total no. of cases studied ([1]; Liver): 0/2
No. of positive cases/total no. of cases studied ([1]; Lung): 0/2
No. of positive cases/total no. of cases studied ([1]; Ovary): 0/2
No. of positive cases/total no. of cases studied ([1]; Pancreas): 0/2
No. of positive cases/total no. of cases studied ([1]; Placenta): 0/4
No. of positive cases/total no. of cases studied ([1]; Rectum): 0/2
No. of positive cases/total no. of cases studied ([1]; Skeletal muscle): 2/2
No. of positive cases/total no. of cases studied ([1]; Skin): 0/2
No. of positive cases/total no. of cases studied ([1]; Spleen): 0/2
No. of positive cases/total no. of cases studied ([1]; Stomach): 0/2
No. of positive cases/total no. of cases studied ([1]; Testis): 0/2
No. of positive cases/total no. of cases studied ([1]; Thymus): 0/2
No. of positive cases/total no. of cases studied ([1]; Thyroid): 0/2
No. of positive cases/total no. of cases studied ([1]; Tonsil): 0/2
No. of positive cases/total no. of cases studied ([1]; Uterus): 0/2
